Laboratory results from the supplement of paper PMC10567573.

B1: ZNF277 (parent)
chain: ILREELQKQRLREILEQQQQERND
B2: VPS39 (parent)
chain: ITEEKVCMVCKKKIGNSAFARYPN

Variants of: B1
Experiment: protein stability index of a GFP-peptide fusion (GPS, HEK-293T) (PSI 1-6); higher = more stable
Conditions: c terminus: a fixed tail appended
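Note: lentivirally expressed fusions sorted by FACS into six bins by GFP to DsRed ratio, PSI derived from sequencing read proportions per bin multiplied by bin number.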

Row | Variant | protein stability index
1 | I1M | 4.66
2 | I1A | 4.59
3 | I1H | 4.89
4 | I1C | 4.79
5 | I1L | 4.09
6 | I1S | 5.12
7 | I1E | 4.93
8 | I1P | 4.73
9 | I1F | 4.43
10 | I1K | 4.24
11 | I1G | 4.93
12 | I1N | 4.99

Variants of: B2
Experiment: as above
Conditions: c terminus: a fixed tail appended

Row | Variant | protein stability index
13 | R21A | 2.86
14 | R21I | 2.93
15 | R21V | 2.59
16 | R21W | 1.94
17 | R21K | 2.77
18 | R21G | 2.83
19 | R21S | 2.58
20 | R21Q | 2.75
21 | R21N | 2.71
22 | R21F | 2.39
23 | R21D | 4.02
24 | R21M | 2.71
25 | R21P | 3.02
26 | R21C | 2.5
27 | R21T | 2.55
28 | R21E | 3.15
29 | R21L | 2.45
30 | R21H | 2.99
31 | R21Y | 3.13
32 | N16Y | 2.1
33 | N16V | 2.37
34 | N16W | 2.08
35 | N16T | 2.77
36 | F19E | 3.62
37 | F19P | 3.14
38 | F19I | 2.82

Row | Variant | protein stability index
39 | F19L | 2.28
40 | F19A | 3.58
41 | F19S | 2.56
42 | F19K | 3.55
43 | F19Y | 3.06
44 | F19V | 3.27
45 | F19W | 2.34
46 | F19N | 2.69
47 | F19R | 2.91
48 | F19M | 2.39
49 | F19H | 2.89
50 | F19D | 4.58
51 | F19C | 3.52
52 | F19Q | 3.58
53 | F19T | 3.58
54 | F19G | 3.29
55 | P23L | 2.57
56 | P23I | 2.63
57 | P23A | 2.38
58 | P23H | 2.04
59 | P23V | 4.25
60 | P23E | 3.38
61 | P23F | 1.76
62 | P23W | 1.75
63 | P23C | 2.8
64 | P23S | 2.56

Row | Variant | protein stability index
65 | P23R | 2.49
66 | P23Q | 2.26
67 | P23D | 3.19
68 | P23T | 2.13
69 | P23K | 2.13
70 | P23N | 2.32
71 | P23G | 2.7
72 | P23M | 1.78
73 | P23Y | 1.74
74 | A18G | 3.02
75 | A18F | 2.15
76 | A18D | 3.65
77 | A18R | 2.26
78 | A18T | 2.52
79 | A18I | 1.81
80 | A18W | 2.08
81 | A18L | 2.4
82 | A18C | 2.37
83 | A18V | 2
84 | A18H | 2.73
85 | A18Y | 1.89
86 | A18Q | 2.41
87 | A18S | 3.04
88 | A18E | 3.2
89 | A18N | 2.99
90 | A18K | 2.4

Row | Variant | protein stability index
91 | A18P | 2.19
92 | A18M | 2.34
93 | N24I | 1.86
94 | N24W | 1.93
95 | N24V | 1.65
96 | N24M | 2.06
97 | N24C | 2.34
98 | N24H | 2.36
99 | N24S | 2.18
100 | N24T | 2.88
101 | N24Q | 2.52
102 | N24L | 2.27
103 | N24P | 2.37
104 | N24A | 2.11
105 | N24G | 1.77
106 | N24E | 2.05
107 | N24K | 2.24
108 | N24D | 2.6
109 | N24F | 1.85
110 | N24Y | 2.39
111 | A20W | 2.16
112 | A20E | 2.11
113 | A20R | 2.62
114 | A20G | 2.05
115 | A20D | 2.62
116 | A20V | 2.38

Row | Variant | protein stability index
117 | A20M | 2.43
118 | A20I | 3.49
119 | A20H | 2.38
120 | A20N | 2.32
121 | A20P | 2.62
122 | A20Q | 2.74
123 | A20T | 2.73
124 | A20Y | 2.31
125 | A20F | 2.34
126 | A20S | 3.16
127 | A20L | 2.09
128 | A20C | 2.56
129 | A20K | 2.26
130 | Y22A | 2.57
131 | Y22N | 2.72
132 | Y22E | 3.55
133 | Y22W | 1.63
134 | Y22T | 2.95
135 | Y22L | 2.22
136 | Y22Q | 2.77
137 | Y22F | 2.31
138 | Y22I | 2.39
139 | Y22H | 2.77
140 | Y22C | 2.98
141 | Y22G | 2.64
142 | Y22K | 2.82

Row | Variant | protein stability index
143 | Y22R | 2.35
144 | Y22P | 2.65
145 | Y22S | 2.81
146 | Y22D | 3.12
147 | Y22V | 2.38
148 | Y22M | 2.9
149 | S17P | 2.47
150 | S17Y | 2.08
151 | S17D | 2.78
152 | S17N | 2.17
153 | S17M | 2.3
154 | S17E | 3.4
155 | S17T | 2.11
156 | S17R | 2.62
157 | S17L | 2.07
158 | S17C | 2.67
159 | S17H | 2.54
160 | S17I | 3.04
161 | S17G | 2.52
162 | S17W | 2.14
163 | S17V | 3.12
164 | S17A | 2.19
165 | S17F | 2.18
166 | S17Q | 3.1
167 | S17K | 2.1
